The results in this text go back to patent US20250243274A1 (JIBE THERAPEUTICS, published 2025).

The series deals with the molecule itself. Description: SDS-PAGE, no laddering in the reduced lane.

B1: JIB34 (bispecific antibody)
heavy: QVQLQQPGAELVKPGASVKMSCKASGYTFTNYWINWVKQRPGQGLEWIGDIYPGGGITNYNEKFKTKATLTLDTSSSTVYMQLSSLTSEDSAVYYCSRSYGKYFDYWGQGTTLIVSSASTKGPSVFPLAPSSKSTSGGTAALGCLVKDYFPEPVTVSWNSGALTSGVHTCPAVLQSSGLYSLSSVVTVPSSSLGTQTYICNVNHKPSNTKVDKKVEPKSSDKTHTGGHHHHHH
light: DIKMTQSPSSMYASVGERVTITCKASQDIKSYLTWYQKKPWKSPRTLIFYSTRLADGVPSRFSGSGSGQDFSLTISSLESDDTATYYCLQHDESPFTFGGGTKLEIKRTVAAPSVFIFPPSDEQLKSGTASVVCLLNNFYPREAKVQWKVDNALQSGNSQESVTEQDSKDSTYSLCSTLTLSKADYEKHKVYACEVTHQGLSSPVTKSFNRGESGGGGSGGGGSGGGGSDIQMTQSPSSLSASVGDRVTITCRASQDIRNYLNWYQQKPGKAPKLLIYYTSRLESGVPSRFSGSGSGTDYTLTISSLQPEDFATYYCQQGNTLPWTFGQGTKVEIKGGGGSGGGGSGGGGSEVQLVESGGGLVQPGGSLRLSCAASGYSFTGYTMNWVRQAPGKGLEWVALINPTKGVSTYNQKFKDRFTISVDKSKNTAYLQMNSLRAEDTAVYYCARSGYYGDSDWYFDVWGQGTLVTVSS
notes: HP6017 Fab (bDS) with HzUCHT1 scFv on the light chain; also called anti-Fc HP6017 HzUCHT1 IgR
For B1, the binding result is “no binding”.
